Results taken from PMC8408477.

Legend:
GST-RhBBX28 [1] = target: T1, GST-RhBBX28 (Rosa hybrida, UniProt A0A8K1NC92 1-241); experiment: EMSA
T1 sequence: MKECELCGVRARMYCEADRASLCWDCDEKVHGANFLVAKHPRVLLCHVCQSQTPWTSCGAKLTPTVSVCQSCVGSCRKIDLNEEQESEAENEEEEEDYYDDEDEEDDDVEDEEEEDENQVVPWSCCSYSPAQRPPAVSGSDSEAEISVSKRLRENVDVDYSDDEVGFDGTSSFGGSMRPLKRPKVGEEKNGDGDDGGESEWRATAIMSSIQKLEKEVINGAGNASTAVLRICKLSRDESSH

GST-RhBBX28 [2] = target: T1, GST-RhBBX28; experiment: competition
GST-RhPIF8 [3] = target: T2, GST-RhPIF8 (Rosa hybrida, UniProt A0A8K1NC13 1-452); experiment: EMSA
T2 sequence: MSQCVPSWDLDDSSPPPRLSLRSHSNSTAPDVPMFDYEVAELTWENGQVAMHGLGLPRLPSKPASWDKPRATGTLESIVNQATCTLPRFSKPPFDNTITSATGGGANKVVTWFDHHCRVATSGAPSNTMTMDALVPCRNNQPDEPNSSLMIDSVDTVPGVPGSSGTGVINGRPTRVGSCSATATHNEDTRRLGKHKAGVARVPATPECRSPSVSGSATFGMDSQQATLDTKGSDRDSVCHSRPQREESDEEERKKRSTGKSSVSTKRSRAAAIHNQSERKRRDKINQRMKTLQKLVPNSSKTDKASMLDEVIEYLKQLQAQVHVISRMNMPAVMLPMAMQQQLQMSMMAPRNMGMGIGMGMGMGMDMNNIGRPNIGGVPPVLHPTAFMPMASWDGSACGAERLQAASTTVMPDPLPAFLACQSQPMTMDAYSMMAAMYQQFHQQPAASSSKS

GST-RhBBX28 [4] = target: T1, GST-RhBBX28; experiment: EMSA; remark: listed apart in the source
GST-RhPIF8 [5] = target: T2, GST-RhPIF8; experiment: competition

B1: RhSDH1 probe (dsDNA)
DNA 1: GTCAACTCCTCACGTTTCATGAGTCTTCTATAGGAATCAACACGTTACATTCTGCA
DNA 2: TGCAGAATGTAACGTGTTGATTCCTATAGAAGACTCATGAAACGTGAGGAGTTGAC
GST-RhBBX28 [1]
  binding result: binds

B2: RhSDH1 mProbe (dsDNA)
DNA 1: GTCAACTCCTAAAAAATCATGAGTCTTCTATAGGAATCAAAAAAAAACATTCTGCA
DNA 2: TGCAGAATGTTTTTTTTTGATTCCTATAGAAGACTCATGATTTTTTAGGAGTTGAC
GST-RhBBX28 [2]
  binding result: no binding

B3: RhBBX28 probe (dsDNA)
DNA 1: GCCTAACACATGGCCACCATACCACCACGACCCTGC
DNA 2: GCAGGGTCGTGGTGGTATGGTGGCCATGTGTTAGGC
GST-RhPIF8 [3]
  binding result: binds

B4: RhSDH1 probe2 (dsDNA)
DNA 1: AGGTTTTGCAACTAGAAACGTGTTAGAAGAATAATCACAG
DNA 2: CTGTGATTATTCTTCTAACACGTTTCTAGTTGCAAAACCT
GST-RhBBX28 [4]
  binding result: no binding

B5: RhBBX28 mProbe (dsDNA)
DNA 1: GCCTAAAAAAAAACCACCATACCACAAAAAACCTGC
DNA 2: GCAGGTTTTTTGTGGTATGGTGGTTTTTTTTTAGGC
GST-RhPIF8 [5]
  binding result: no binding
